This is an account of results in patent US20220064286A1 (Genentech, published 2022).

Broadly, the Kd is the free concentration of one partner at which half of the binding sites on the other are occupied at equilibrium, for simple one-to-one binding. The term koff denotes the first-order rate constant of dissociation. As a reminder, the kon is the rate constant with which the complex forms.

For assay [1], the target named is T1, human TIGIT protein (human, UniProt Q495A1 22-141, limits assumed).
T1 construct: Recombinant protein (Genentech) used in ELISA screening and as SPR analyte; also called TIGIT antigen
T1 sequence: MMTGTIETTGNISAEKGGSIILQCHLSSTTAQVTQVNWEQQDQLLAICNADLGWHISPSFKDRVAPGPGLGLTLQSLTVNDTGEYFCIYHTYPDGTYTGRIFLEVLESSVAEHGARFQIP
Put plainly: SPR, captured mAb. From the text: (§1) To prevent unwanted pyroglutamate formation for clones 4.1A4, 4.1 D3, and 7.4A3 (also referred to as 1A4, 1 D3, and 4A3, respectively) and to resolve the issue of unpaired cysteine residues for clones 4.1A4 and 7.4A3, the following optimized anti-TIGIT antibody variants were generated: 4.1A4.C96S.Q1E, 4.1A4.C96Y.Q1E, 4.1 D3.Q1E, 7.4A3.C96S.Q1E, and 7.4A3.C96Y.Q1E (also referred to as 1A4.C96S.Q1E, 1A4.C96Y.Q1E, 1 D3.Q1E, 4A3.C96S.Q1E, and 4A3.C96Y.Q1E, respectively). As described below in Table 2, the affinities of these five optimized variants for human and cynomolgus monkey (cyno) TIGIT were then determined by Surface Plasmon Resonance (SRP) (BIACORE™ analysis) and compared to that of their respective parental clones.
(§2) Briefly, a series S CM5 biosensor chip was activated with N-ethyl-N′-(3-dimethylaminopropyl)-carbodiimide hydrochloride (EDC) and N-hydroxysuccinimide (NHS) reagents according to the supplier's (GE Healthcare Biosciences, Piscataway, N.J.) instructions, and a human antibody capture kit was applied to couple goat anti-human Fc IgGs in order to achieve approximately 10,000 response units (RU) on each flow cell, followed by blocking un-reacted groups with 1M ethanolamine.
(§3) (flow rate: 30 μl/min) with no regeneration between injections. The sensorgrams were recorded and evaluated by BIAcore™ T200 Evaluation Software (version 2.0) after subtraction of reference cell signal. Association rates (kₒₙ) and dissociation rates (koff) were calculated using a simple one-to-one Langmuir binding model. The equilibrium dissociation constant (KD) was calculated as the ratio koff/kₒₙ.

Assay [2] addresses T2, cynomolgus monkey (cyno) TIGIT protein (cynomolgus monkey, UniProt A0A7N9I9V4 89-209). Put plainly: SPR, captured mAb.
Source text: as §1, §2, §3
A general note: Surface plasmon resonance follows binding to a sensor surface in real time, without labels.

Assay [3] has as its target T1, human TIGIT protein. Put plainly: SPR, monovalent affinity.
Assay [4] has as its target T2, cynomolgus monkey (cyno) TIGIT protein. In words: SPR, monovalent affinity.
Assay [5] deals with T3, hTIGIT mutant H76A (human, UniProt Q495A1).
T3 sequence (TIGIT, looked up): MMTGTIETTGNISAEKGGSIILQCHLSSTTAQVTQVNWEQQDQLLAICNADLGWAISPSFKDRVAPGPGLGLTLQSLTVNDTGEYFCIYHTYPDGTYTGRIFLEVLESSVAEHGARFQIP
Put plainly: SPR (BIACORE), N=2.

Assay [6] concerns the target T4, hTIGIT mutant N70A (human, UniProt Q495A1).
T4 sequence (TIGIT, looked up): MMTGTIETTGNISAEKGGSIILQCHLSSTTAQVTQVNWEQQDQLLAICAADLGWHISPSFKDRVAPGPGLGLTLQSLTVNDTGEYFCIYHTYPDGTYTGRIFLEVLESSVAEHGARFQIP
In words: SPR (BIACORE), N=2.

Assay [7] has as its target T3, hTIGIT mutant H76A. Put plainly: SPR (BIACORE) KD normalized to WT, N=2.
The target in assay [8] is T5, hTIGIT mutant H111A (human, UniProt Q495A1).
T5 sequence (TIGIT, looked up): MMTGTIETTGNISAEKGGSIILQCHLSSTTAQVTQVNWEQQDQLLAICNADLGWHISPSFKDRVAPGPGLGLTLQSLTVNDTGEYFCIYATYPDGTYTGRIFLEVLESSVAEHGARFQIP
Put plainly: SPR (BIACORE) KD normalized to WT, N=2.

Assay [9] addresses T6, hTIGIT mutant T117A (human, UniProt Q495A1).
T6 sequence (TIGIT, looked up): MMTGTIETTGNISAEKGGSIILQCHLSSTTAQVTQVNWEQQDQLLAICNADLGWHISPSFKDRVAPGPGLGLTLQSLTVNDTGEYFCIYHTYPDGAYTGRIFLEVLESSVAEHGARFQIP
In words: SPR (BIACORE) KD normalized to WT, N=2.

In assay [10] the target is T7, hTIGIT mutant Q56A (human, UniProt Q495A1).
T7 sequence (TIGIT, looked up): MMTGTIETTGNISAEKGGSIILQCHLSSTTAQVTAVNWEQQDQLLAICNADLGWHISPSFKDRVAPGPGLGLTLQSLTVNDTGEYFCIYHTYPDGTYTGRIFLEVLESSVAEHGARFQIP
In words: SPR (BIACORE) KD normalized to WT, N=2.

Assay [11] has as its target T8, hTIGIT mutant E60A (human, UniProt Q495A1).
T8 sequence (TIGIT, looked up): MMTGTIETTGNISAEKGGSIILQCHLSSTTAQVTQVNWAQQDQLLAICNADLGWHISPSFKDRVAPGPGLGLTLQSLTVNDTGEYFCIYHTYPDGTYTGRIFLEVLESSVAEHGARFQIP
Put plainly: SPR (BIACORE) KD normalized to WT, N=2.

Assay [12] deals with T9, hTIGIT mutant L65A (human, UniProt Q495A1).
T9 sequence (TIGIT, looked up): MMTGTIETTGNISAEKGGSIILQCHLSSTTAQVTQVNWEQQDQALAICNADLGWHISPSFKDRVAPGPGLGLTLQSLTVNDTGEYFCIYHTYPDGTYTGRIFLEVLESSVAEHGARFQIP
In words: SPR (BIACORE) KD normalized to WT, N=2.

Assay [13] addresses T10, hTIGIT mutant I68A (human, UniProt Q495A1).
T10 sequence (TIGIT, looked up): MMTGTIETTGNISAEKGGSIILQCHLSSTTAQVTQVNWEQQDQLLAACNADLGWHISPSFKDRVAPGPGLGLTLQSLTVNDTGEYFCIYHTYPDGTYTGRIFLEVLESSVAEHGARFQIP
In words: SPR (BIACORE) KD normalized to WT, N=2.

Assay [14] deals with T4, hTIGIT mutant N70A. In words: SPR (BIACORE) KD normalized to WT, N=2.

Where only a bound is given, the exact number is not on record here.

T2 sequence (A0A7N9I9V4 entry or part of it): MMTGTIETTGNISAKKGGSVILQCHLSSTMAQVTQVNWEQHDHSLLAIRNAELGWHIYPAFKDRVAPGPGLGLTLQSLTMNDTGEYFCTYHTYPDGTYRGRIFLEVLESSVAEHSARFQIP

B1: 4.1D3 (antibody, V domains shown)
VH: QVQLQQSGPGLVKPSQTLSLTCAISGDSVSSNSAAWNWIRQSPSRGLEWLGKTYYRFKWYSDYAVSVKGRITINPDTSKNQFSLQLNSVTPEDTAVFYCTRESTTYDLLAGPFDYWGQGTLVTVSS
VL: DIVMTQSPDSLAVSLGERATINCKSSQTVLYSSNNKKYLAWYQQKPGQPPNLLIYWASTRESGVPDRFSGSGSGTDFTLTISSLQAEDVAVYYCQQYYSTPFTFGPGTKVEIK
notes: OMT rat-derived human antibody; also called 4.1D3.Q1
Take B1: the Kd in [1] stood at 0.43 nM; in [2], 3.33 nM; in assay [3] it was 0.61 nM; in assay [4] it was 3.4 nM; in assay [5], 0.7 nM; in [6] it was 1.7 nM. Further, the koff was determined as 0.00164 s⁻¹ in [1] and 0.00207 s⁻¹ in assay [2]. Moreover, the kon in assay [1] was determined as 3.84e+06 M⁻¹ s⁻¹; in assay [2] it was 621000 M⁻¹ s⁻¹. In addition, the “Binding affinity drop vs. WT” value was found to be 1.4 fold in [7]; 3.8 fold in [8]; 1.4 fold in assay [9]; 5.4 fold in assay [10]; 12.2 fold in assay [11]; 17.6 fold in assay [12]. Also, the “Binding affinity drop vs. WT” value was 21 fold in [13] and 3.4 fold in assay [14].

B2: 4.1D3.Q1E (antibody, V domains shown)
VH: EVQLQQSGPGLVKPSQTLSLTCAISGDSVSSNSAAWNWIRQSPSRGLEWLGKTYYRFKWYSDYAVSVKGRITINPDTSKNQFSLQLNSVTPEDTAVFYCTRESTTYDLLAGPFDYWGQGTLVTVSS
VL: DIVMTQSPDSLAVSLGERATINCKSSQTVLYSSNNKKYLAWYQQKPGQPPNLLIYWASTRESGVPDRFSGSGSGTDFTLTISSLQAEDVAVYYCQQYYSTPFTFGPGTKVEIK
For the molecule B2, the equilibrium dissociation constant (Kd) is 0.56 nM in assay [1], 3.22 nM in assay [2], 0.57 nM in [3] and 3.2 nM in assay [4]. The figures for the koff in assay [1] and in assay [2] were 0.00097 s⁻¹ and 0.00154 s⁻¹, respectively. The association rate constant (kon) was found to be 1.72e+06 M⁻¹ s⁻¹ in assay [1] and 478000 M⁻¹ s⁻¹ in assay [2].

B3: 10A7 (antibody, V domains shown)
VH: EVQLVESGGGLTQPGKSLKLSCEASGFTFSSFTMHWVRQSPGKGLEWVAFIRSGSGIVFYADAVRGRFTISRDNAKNLLFLQMNDLKSEDTAMYYCARRPLGHNTFDSWGQGTLVTVSS
VL: DIVMTQSPSSLAVSPGEKVTMTCKSSQSLYYSGVKENLLAWYQQKPGQSPKLLIYYASIRFTGVPDRFTGSGSGTDYTLTITSVQAEDMGQYFCQQGINNPLTFGDGTKLEIKR
For the molecule B3, the Kd in [5] was more than 500 nM; in [6], 24.3 nM. In addition, the “Binding affinity drop vs. WT” value in assay [7] is more than 11 fold; in assay [8] it was 0.7 fold; in [9] it was 0.8 fold; in [10] it was 0.7 fold; in assay [11], 0.9 fold; in assay [12], 0.2 fold. The “Binding affinity drop vs. WT” value in [13] came to 0.4 fold; in [14], 0.5 fold.

B4: 7.4A3.C96S.Q1E (antibody, V domains shown)
VH: EVQLVQSGSDLKKPGASVRVSCKASGYTFTSYPMNWVRQAPGHGLEWMGWINTNTGNPTYVQGFTGRFVFSLDTSVNTAYLQISSLKAEDTAVYFCARTGGHTYDSYAFDVWGQGTMVTVSS
VL: DIQLTQSPTFLSASVGDRVTITCRASQVISSSLAWYQQNPGKAPKLLIYAASTLQSGVPSRFSGSGSGTEFTLTISSLQPEDFVTYYCQHLHGYPSNFGQGTKVEIK
notes: also called 7.4A3.Q1E.C96S
As for B4, the Kd in assay [1] was found to be 2.97 nM; in [2], 2.01 nM; in [3], 2.97 nM; in assay [4] it was 2.02 nM; in assay [5] it was 4.2 nM; in assay [6], 10.7 nM. The koff in assay [1] was determined as 0.000856 s⁻¹; in assay [2], 0.000556 s⁻¹. For the same molecule, the kon in assay [1] was determined as 288000 M⁻¹ s⁻¹; in [2] it was 276000 M⁻¹ s⁻¹. In addition, the “Binding affinity drop vs. WT” value in assay [7] was 2.3 fold; in assay [8] it was 84 fold; in assay [9], 1.8 fold; in [10], 13.2 fold; in [11], 2.7 fold; in assay [12], 2.2 fold. The figures for the “Binding affinity drop vs. WT” value in assay [13] and in assay [14] were 2.7 fold and 5.9 fold, respectively.
